We go through 41 variants from the RNAGym collection of RNA variant scans (doi:10.7554/elife.90254).

To fix the notation:
B1: OR4K15 (parent)
chain: GUUAACGGUCAUAGGCCAUGGAAACUAGGAGCACCAUUUCGCUGCCAGUGAAGAAAUGAACAAAGAAAAUCUGGGCCAGGCAGGCAUCAAAAGAAAUAGUCUUGCGCUCAACCAGAAAGUCUGUAAUCAUUUUAAGGGUA

The variants in this data set derive from B1. In words: self-cleavage, relative activity (ratio to wild type); higher = more cleavage; in vitro, sequencing; the parent is a self-cleaving ribozyme.
For GUUAACGGUCAUAGGCCAUGGAAACUAGGAGCACCAUUUCGCUGCCAGUGAAGAAAUGAACAAAGAAAAUCUGGGCCAGGCAGGCAUCAAAAGAAAUAGUCUUGCGCUCAACCAGGAAGUCUGUAGUCAUUUUAAGGGUA [A116G A126G], the self-cleavage turned out to be 0.12.

In the case of GUUAACGGUCAUAGGCCAUGGAAACUAGGAGCACCAUUUCGCUGCCAGUGAAGAAAUGAACAAAGAAAAUCUGGGCCAGGCAGGCAUCAAAAGAAAUAGUCUUGCGCUCAACCAGACAGUCCGUAAUCAUUUUAAGGGUA [A117C U122C], the self-cleavage was found to be 0.4.

GUUAACGGUCAUAGGCCAUGGAAACUAGGAGCACCAUUUCGCUGCCAGUGAAGAAAUGAACAAAGAAAAUCUGGGCCAGGCAGGCAUCAAAAGAAAUAGUCUUGCGCUCAACCAGGGAGUCUGUAAUCAUUUUAAGGGUA [A116G A117G]: the self-cleavage amounted to 0.55.

On to GUUAACGGUCAUAGGCCAUGGAAACUAGGAGCACCAUUUCGCUGCCAGUGAAGAAAUGAACAAAGAAAAUCUGGGCCAGGCAGGCAUCAAAAGAAAUAGUCUUGCGCUCAACCAGGCAGUCUGUAAUCAUUUUAAGGGUA [A116G A117C], for which the self-cleavage is 0.1.

GUUAACGGUCAUAGGCCAUGGAAACUAGGAGCACCAUUUCGCUGCCAGUGAAGAAAUGAACAAAGAAAAUCUGGGCCAGGCAGGCAUCAAAAGAAAUAGUCUUGCGCUCAACCAGAGAGACUGUAAUCAUUUUAAGGGUA [A117G U120A]: the self-cleavage was 2.78.

As for GUUAACGGUCAUAGGCCAUGGAAACUAGGAGCACCAUUUCGCUGCCAGUGAAGAAAUGAACAAAGAAAAUCUGGGCCAGGCAGGCAUCAAAAGAAAUAGUCUUGCGCUCAACCAGUAAGUCUGUAAUCAUUUUAAAGGUA [A116U G136A], the self-cleavage is 0.07.

With GUUAACGGUCAUAGGCCAUGGAAACUAGGAGCACCAUUUCGCUGCCAGUGAAGAAAUGAACAAAGAAAAUCUGGGCCAGGCAGGCAUCAAAAGAAAUAGUCUUGCGCUCAACCAGGAAGUCUGUAAUCGUUUUAAGGGUA [A116G A129G], the self-cleavage was 0.41.

Take GUUAACGGUCAUAGGCCAUGGAAACUAGGAGCACCAUUUCGCUGCCAGUGAAGAAAUGAACAAAGAAAAUCUGGGCCAGGCAGGCAUCAAAAGAAAUAGUCUUGCGCUCAACCAGUAAGUCUGUAAGCAUUUUAAGGGUA [A116U U127G]: the self-cleavage was 0.11.

On to GUUAACGGUCAUAGGCCAUGGAAACUAGGAGCACCAUUUCGCUGCCAGUGAAGAAAUGAACAAAGAAAAUCUGGGCCAGGCAGGCAUCAAAAGAAAUAGUCUUGCGCUCAACCAGUAAGUCUGUAAUCAUUUUAAGGUUA [A116U G138U], for which the self-cleavage worked out at 0.03.

For GUUAACGGUCAUAGGCCAUGGAAACUAGGAGCACCAUUUCGCUGCCAGUGAAGAAAUGAACAAAGAAAAUCUGGGCCAGGCAGGCAUCAAAAGAAAUAGUCUUGCGCUCAACCAGGAAGUCUGUAAUCAUUUGAAGGGUA [A116G U133G], the self-cleavage amounted to 0.82.

GUUAACGGUCAUAGGCCAUGGAAACUAGGAGCACCAUUUCGCUGCCAGUGAAGAAAUGAACAAAGAAAAUCUGGGCCAGGCAGGCAUCAAAAGAAAUAGUCUUGCGCUCAACCAGGAAGUCUGUAAUCACUUUAAGGGUA [A116G U130C]: the self-cleavage turned out to be 0.25.

Regarding GUUAACGGUCAUAGGCCAUGGAAACUAGGAGCACCAUUUCGCUGCCAGUGAAGAAAUGAACAAAGAAAAUCUGGGCCAGGCAGGCAUCAAAAGAAAUAGUCUUGCGCUCAACCAGACAGUCUGUAAUCAUUUUAAGGGCA [A117C U139C], the self-cleavage came out at 0.68.

GUUAACGGUCAUAGGCCAUGGAAACUAGGAGCACCAUUUCGCUGCCAGUGAAGAAAUGAACAAAGAAAAUCUGGGCCAGGCAGGCAUCAAAAGAAAUAGUCUUGCGCUCAACCAGAGAGUCUGUAAUCAUUUUAAGGGUG [A117G A140G]: the self-cleavage came out at 1.68.

For the variant GUUAACGGUCAUAGGCCAUGGAAACUAGGAGCACCAUUUCGCUGCCAGUGAAGAAAUGAACAAAGAAAAUCUGGGCCAGGCAGGCAUCAAAAGAAAUAGUCUUGCGCUCAACCAGAGAGUCUGUAAUCAUUUUAAGGGUU [A117G A140U], the self-cleavage came to 1.12.

Turning to GUUAACGGUCAUAGGCCAUGGAAACUAGGAGCACCAUUUCGCUGCCAGUGAAGAAAUGAACAAAGAAAAUCUGGGCCAGGCAGGCAUCAAAAGAAAUAGUCUUGCGCUCAACCAGACAGACUGUAAUCAUUUUAAGGGUA [A117C U120A], the self-cleavage amounted to 1.28.

Take GUUAACGGUCAUAGGCCAUGGAAACUAGGAGCACCAUUUCGCUGCCAGUGAAGAAAUGAACAAAGAAAAUCUGGGCCAGGCAGGCAUCAAAAGAAAUAGUCUUGCGCUCAACCAGGAAGUCUGUAACCAUUUUAAGGGUA [A116G U127C]: the self-cleavage worked out at 0.31.

In the case of GUUAACGGUCAUAGGCCAUGGAAACUAGGAGCACCAUUUCGCUGCCAGUGAAGAAAUGAACAAAGAAAAUCUGGGCCAGGCAGGCAUCAAAAGAAAUAGUCUUGCGCUCAACCAGGAAGUCUGUAAACAUUUUAAGGGUA [A116G U127A], the self-cleavage was 0.72.

In the case of GUUAACGGUCAUAGGCCAUGGAAACUAGGAGCACCAUUUCGCUGCCAGUGAAGAAAUGAACAAAGAAAAUCUGGGCCAGGCAGGCAUCAAAAGAAAUAGUCUUGCGCUCAACCAGGAAGUCUGUAAUCAUUUUAAAGGUA [A116G G136A], the self-cleavage was found to be 1.65.

Regarding GUUAACGGUCAUAGGCCAUGGAAACUAGGAGCACCAUUUCGCUGCCAGUGAAGAAAUGAACAAAGAAAAUCUGGGCCAGGCAGGCAUCAAAAGAAAUAGUCUUGCGCUCAACCAGGAAGUCUGUAAUCAUUUUAAUGGUA [A116G G136U], the self-cleavage was found to be 0.74.

Consider GUUAACGGUCAUAGGCCAUGGAAACUAGGAGCACCAUUUCGCUGCCAGUGAAGAAAUGAACAAAGAAAAUCUGGGCCAGGCAGGCAUCAAAAGAAAUAGUCUUGCGCUCAACCAGGAAGUCUGAAAUCAUUUUAAGGGUA [A116G U124A], for which the self-cleavage was 0.69.

For the variant GUUAACGGUCAUAGGCCAUGGAAACUAGGAGCACCAUUUCGCUGCCAGUGAAGAAAUGAACAAAGAAAAUCUGGGCCAGGCAGGCAUCAAAAGAAAUAGUCUUGCGCUCAACCAGAGAGUCUGUAAUUAUUUUAAGGGUA [A117G C128U], the self-cleavage came to 2.12.

For the variant GUUAACGGUCAUAGGCCAUGGAAACUAGGAGCACCAUUUCGCUGCCAGUGAAGAAAUGAACAAAGAAAAUCUGGGCCAGGCAGGCAUCAAAAGAAAUAGUCUUGCGCUCAACCAGCAAGUCUGUAAUCAUUUCAAGGGUA [A116C U133C], the self-cleavage came out at 0.28.

For the variant GUUAACGGUCAUAGGCCAUGGAAACUAGGAGCACCAUUUCGCUGCCAGUGAAGAAAUGAACAAAGAAAAUCUGGGCCAGGCAGGCAUCAAAAGAAAUAGUCUUGCGCUCAACCAGUAAGUCUGUAAUCAUUAUAAGGGUA [A116U U132A], the self-cleavage stood at 0.05.

On to GUUAACGGUCAUAGGCCAUGGAAACUAGGAGCACCAUUUCGCUGCCAGUGAAGAAAUGAACAAAGAAAAUCUGGGCCAGGCAGGCAUCAAAAGAAAUAGUCUUGCGCUCAACCAGUAAGUCUGAAAUCAUUUUAAGGGUA [A116U U124A], for which the self-cleavage worked out at 0.08.

For the variant GUUAACGGUCAUAGGCCAUGGAAACUAGGAGCACCAUUUCGCUGCCAGUGAAGAAAUGAACAAAGAAAAUCUGGGCCAGGCAGGCAUCAAAAGAAAUAGUCUUGCGCUCAACCAGAGAGUCUGUACUCAUUUUAAGGGUA [A117G A126C], the self-cleavage worked out at 1.79.

On to GUUAACGGUCAUAGGCCAUGGAAACUAGGAGCACCAUUUCGCUGCCAGUGAAGAAAUGAACAAAGAAAAUCUGGGCCAGGCAGGCAUCAAAAGAAAUAGUCUUGCGCUCAACCAGGAAGUCUGUAAUCAUAUUAAGGGUA [A116G U131A], for which the self-cleavage is 0.25.

On to GUUAACGGUCAUAGGCCAUGGAAACUAGGAGCACCAUUUCGCUGCCAGUGAAGAAAUGAACAAAGAAAAUCUGGGCCAGGCAGGCAUCAAAAGAAAUAGUCUUGCGCUCAACCAGAGAGUCUGUAAUCUUUUUAAGGGUA [A117G A129U], for which the self-cleavage was 1.01.

For GUUAACGGUCAUAGGCCAUGGAAACUAGGAGCACCAUUUCGCUGCCAGUGAAGAAAUGAACAAAGAAAAUCUGGGCCAGGCAGGCAUCAAAAGAAAUAGUCUUGCGCUCAACCAGGAAGUCAGUAAUCAUUUUAAGGGUA [A116G U122A], the self-cleavage turned out to be 0.5.

Turning to GUUAACGGUCAUAGGCCAUGGAAACUAGGAGCACCAUUUCGCUGCCAGUGAAGAAAUGAACAAAGAAAAUCUGGGCCAGGCAGGCAUCAAAAGAAAUAGUCUUGCGCUCAACCAGUAAGUCAGUAAUCAUUUUAAGGGUA [A116U U122A], the self-cleavage was found to be 0.25.

With GUUAACGGUCAUAGGCCAUGGAAACUAGGAGCACCAUUUCGCUGCCAGUGAAGAAAUGAACAAAGAAAAUCUGGGCCAGGCAGGCAUCAAAAGAAAUAGUCUUGCGCUCAACCAGACAGUCUGUAAUCAUUUUAGGGGUA [A117C A135G], the self-cleavage stood at 0.2.

GUUAACGGUCAUAGGCCAUGGAAACUAGGAGCACCAUUUCGCUGCCAGUGAAGAAAUGAACAAAGAAAAUCUGGGCCAGGCAGGCAUCAAAAGAAAUAGUCUUGCGCUCAACCAGUGAGUCUGUAAUCAUUUUAAGGGUA [A116U A117G]: the self-cleavage was found to be 0.15.

Turning to GUUAACGGUCAUAGGCCAUGGAAACUAGGAGCACCAUUUCGCUGCCAGUGAAGAAAUGAACAAAGAAAAUCUGGGCCAGGCAGGCAUCAAAAGAAAUAGUCUUGCGCUCAACCAGGAAGUCUAUAAUCAUUUUAAGGGUA [A116G G123A], the self-cleavage came out at 0.19.

For the variant GUUAACGGUCAUAGGCCAUGGAAACUAGGAGCACCAUUUCGCUGCCAGUGAAGAAAUGAACAAAGAAAAUCUGGGCCAGGCAGGCAUCAAAAGAAAUAGUCUUGCGCUCAACCAGGACGUCUGUAAUCAUUUUAAGGGUA [A116G A118C], the self-cleavage came out at 0.15.

GUUAACGGUCAUAGGCCAUGGAAACUAGGAGCACCAUUUCGCUGCCAGUGAAGAAAUGAACAAAGAAAAUCUGGGCCAGGCAGGCAUCAAAAGAAAUAGUCUUGCGCUCAACCAGGAAGUCUGUAAUCAUUUUAAGGGUG [A116G A140G]: the self-cleavage came to 0.97.

GUUAACGGUCAUAGGCCAUGGAAACUAGGAGCACCAUUUCGCUGCCAGUGAAGAAAUGAACAAAGAAAAUCUGGGCCAGGCAGGCAUCAAAAGAAAUAGUCUUGCGCUCAACCAGGAAGUCUGUAAUCAUUUUAAGGGUU [A116G A140U]: the self-cleavage worked out at 0.92.

Consider GUUAACGGUCAUAGGCCAUGGAAACUAGGAGCACCAUUUCGCUGCCAGUGAAGAAAUGAACAAAGAAAAUCUGGGCCAGGCAGGCAUCAAAAGAAAUAGUCUUGCGCUCAACCAGACAGUCUGUAAUCAUUUUAAGGGUA [A117C], for which the self-cleavage turned out to be 0.55.

Regarding GUUAACGGUCAUAGGCCAUGGAAACUAGGAGCACCAUUUCGCUGCCAGUGAAGAAAUGAACAAAGAAAAUCUGGGCCAGGCAGGCAUCAAAAGAAAUAGUCUUGCGCUCAACCAGAGAGUCUGUAAUCAUUUUAAGGGUA [A117G], the self-cleavage worked out at 1.4.

GUUAACGGUCAUAGGCCAUGGAAACUAGGAGCACCAUUUCGCUGCCAGUGAAGAAAUGAACAAAGAAAAUCUGGGCCAGGCAGGCAUCAAAAGAAAUAGUCUUGCGCUCAACCAGAGAGUCUGUAAUCAUUUUAGGGGUA [A117G A135G]: the self-cleavage stood at 2.66.

Regarding GUUAACGGUCAUAGGCCAUGGAAACUAGGAGCACCAUUUCGCUGCCAGUGAAGAAAUGAACAAAGAAAAUCUGGGCCAGGCAGGCAUCAAAAGAAAUAGUCUUGCGCUCAACCAGUAAGUCUGUAAUCGUUUUAAGGGUA [A116U A129G], the self-cleavage turned out to be 0.13.

Take GUUAACGGUCAUAGGCCAUGGAAACUAGGAGCACCAUUUCGCUGCCAGUGAAGAAAUGAACAAAGAAAAUCUGGGCCAGGCAGGCAUCAAAAGAAAUAGUCUUGCGCUCAACCAGGAAGUCUGUAAUCAUUUUUAGGGUA [A116G A134U]: the self-cleavage was found to be 0.2.

Regarding GUUAACGGUCAUAGGCCAUGGAAACUAGGAGCACCAUUUCGCUGCCAGUGAAGAAAUGAACAAAGAAAAUCUGGGCCAGGCAGGCAUCAAAAGAAAUAGUCUUGCGCUCAACCAGAGCGUCUGUAAUCAUUUUAAGGGUA [A117G A118C], the self-cleavage stood at 0.24.
